The values that follow come from PMC6746865, “Identification of telomerase RNAs in species of the Yarrowia clade provides insights into the co-evolution of telomerase, telomeric repeats and telomere-binding proteins”.

The target of this data set is T1, Tay1p (YlTay1p) (Yarrowia lipolytica, UniProt Q6C9I6 1-406).
T1 sequence: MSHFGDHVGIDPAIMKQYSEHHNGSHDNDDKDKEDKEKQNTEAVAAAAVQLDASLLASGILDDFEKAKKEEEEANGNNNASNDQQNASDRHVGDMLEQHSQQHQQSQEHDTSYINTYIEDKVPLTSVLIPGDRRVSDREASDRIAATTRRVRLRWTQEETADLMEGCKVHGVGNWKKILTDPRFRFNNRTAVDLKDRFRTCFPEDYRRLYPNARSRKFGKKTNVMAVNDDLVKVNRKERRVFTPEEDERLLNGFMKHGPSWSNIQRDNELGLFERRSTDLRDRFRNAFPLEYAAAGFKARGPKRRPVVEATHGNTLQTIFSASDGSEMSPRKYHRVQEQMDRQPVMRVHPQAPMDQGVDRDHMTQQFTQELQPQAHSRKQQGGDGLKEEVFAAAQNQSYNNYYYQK
Nature of the data set: EMSA; 20 mM HEPES-NaOH pH 7.3, 100 mM NaCl, 16 nM dsDNA probe (3-fold molar excess of unlabelled C strand used in annealing), 10 min at room temperature; 6% PAGE in cold 0.5x TBE. Particulars: protein: recombinant; label: 5'-32P on G strand; blunt. In general terms: In EMSA bound probe runs differently from free probe, usually more slowly.

B1: Y. lipolytica telomeric probe YlipTEL (2 repeats) (dsDNA)
DNA 1: TTAGTCAGGGTTAGTCAGGG
DNA 2: CCCTGACTAACCCTGACTAA
For the molecule B1, the binding result is on record as “binds”.
